Experimental data taken from publication PMC10370059 (bioRxiv, 2023).

Experiments:
[1] = target: biotinylated Arr3_ΔC loaded with IP6 (bovine) (UniProt P32120); experiment: SEC
[2] = target: biotinylated Arr3_ΔC loaded with IP6 (bovine, UniProt P32120, biotin (sulfo-NHS-Biotin, >95% biotinylated)); experiment: ELISA
[3] = target: Arr3_ΔC (preactivated arrestin3, truncated after residue 392) (bovine, UniProt P32120); experiment: pull-down

stoichiometry N [1] | binding result [2] | binding result [3] | Molecule
3 | – | – | biotinylated Arr3_ΔC loaded with IP6 (from UniProt P32120 1-392) (domain or fragment)
– | binds | binds | Fab7 (Fab, V domains shown) VH: EVQLVESGGGLVQPGGSLRLSCAASGFNVSSSYIHWVRQAPGKGLEWVASISSYYGYTYYADSVKGRFTISADTSKNTAYLQMNSLRAEDTAVYYCARKSMYHRGWGWLSWVYGAMDYWGQGTLVTVSS VL: DIQMTQSPSSLSASVGDRVTITCRASQSVSSAVAWYQQKPGKAPKLLIYSASSLYSGVPSRFSGSRSGTDFTLTISSLQPEDFATYYCQQSYYYPITFGQGTKVEIK
